PMC12514839 (Protein science : a publication of the Protein Society, 2025)

Biological target: CU228, putative PAS-HTH transcription factor from Candidatus Solibacter usitatus (Candidatus Solibacter usitatus)
Test: SEC-MALS

stoichiometry N: 2
Substance: CU228, putative PAS-HTH transcription factor from Candidatus Solibacter usitatus (natural protein)
